Test results published in publication PMC10341166, “The Src-Family Kinases SRC and BLK Contribute to the CLDN6-Adhesion Signaling” (Cells, 2023).

Experiments:
[1] = target: T1, recGST-BLK (full-length recombinant BLK, Sf9) (mouse, UniProt P16277 1-499); test: pull-down; GST pull-down: 10 µg recGST, recBLK-FLAG or recSRC bound to Glutathione-Superflow Resin, incubated with 3 µg recCLDN6C for 1 h at room temperature; washed five times in 140 mM NaCl, 10 mM Na2HPO4, 1.8 mM KH2PO4, pH 7.5; immunoblot; conditions: both partners purified
T1 construct: tyrosine-protein kinase BLK, mouse, full-length; Blk-FLAG subcloned into plEx/Bac-4; also called recBLK; recBLK-FLAG; source: Sf9 insect cells, transfected, purified (GST-tagged protein purification kit)

[2] = target: T2, recGST-SRC (full-length recombinant SRC, Sf9) (mouse, UniProt P05480 1-535); test: as above; conditions: both partners purified
T2 construct: proto-oncogene tyrosine-protein kinase SRC, mouse, full-length; Src-FLAG subcloned into plEx/Bac-4; also called recSRC; source: Sf9 insect cells, transfected, purified (GST-tagged protein purification kit)

T1 sequence (P16277 whole entry): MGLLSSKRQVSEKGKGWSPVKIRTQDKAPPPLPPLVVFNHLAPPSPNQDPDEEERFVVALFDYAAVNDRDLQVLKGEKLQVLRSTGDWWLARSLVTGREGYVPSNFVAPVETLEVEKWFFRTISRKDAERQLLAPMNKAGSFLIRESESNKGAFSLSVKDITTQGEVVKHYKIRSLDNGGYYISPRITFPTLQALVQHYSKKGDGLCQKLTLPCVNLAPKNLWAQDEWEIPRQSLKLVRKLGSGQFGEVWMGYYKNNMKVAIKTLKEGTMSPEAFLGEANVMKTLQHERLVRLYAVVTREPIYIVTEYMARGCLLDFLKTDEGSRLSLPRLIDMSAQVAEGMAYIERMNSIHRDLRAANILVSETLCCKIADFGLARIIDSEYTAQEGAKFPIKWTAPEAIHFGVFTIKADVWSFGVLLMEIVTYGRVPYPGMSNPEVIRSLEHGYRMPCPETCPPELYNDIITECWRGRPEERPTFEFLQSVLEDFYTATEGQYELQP

binding result [1]: binds
binding result [2]: binds
B1: recCLDN6C (recombinant C-terminal cytoplasmic domain of CLDN6, C185-V219) (domain or fragment, mouse, UniProt Q9Z262 185-219, looked up)
chain: CSSGGTQGPRHYMACYSTSVPHSRGPSEYPTKNYV
notes: claudin-6 (CLDN6), mouse, C-terminus C185-V219; source: recombinant, from plEx/Bac-4
